From IntAct's records for PubMed 26592460

B1: "NAD(+) hydrolase SARM1" (Homo sapiens), Q6SZW1 (parent)
chain: MVLTLLLSAYKLCRFFAMSGPRPGAERLAVPGPDGGGGTGPWWAAGGRGPREVSPGAGTEVQDALERALPELQQALSALKQAGGARAVGAGLAEVFQLVEEAWLLPAVGREVAQGLCDAIRLDGGLDLLLRLLQAPELETRVQAARLLEQILVAENRDRVARIGLGVILNLAKEREPVELARSVAGILEHMFKHSEETCQRLVAAGGLDAVLYWCRRTDPALLRHCALALGNCALHGGQAVQRRMVEKRAAEWLFPLAFSKEDELLRLHACLAVAVLATNKEVEREVERSGTLALVEPLVASLDPGRFARCLVDASDTSQGRGPDDLQRLVPLLDSNRLEAQCIGAFYLCAEAAIKSLQGKTKVFSDIGAIQSLKRLVSYSTNGTKSALAKRALRLLGEEVPRPILPSVPSWKEAEVQTWLQQIGFSKYCESFREQQVDGDLLLRLTEEELQTDLGMKSGITRKRFFRELTELKTFANYSTCDRSNLADWLGSLDPRFRQYTYGLVSCGLDRSLLHRVSEQQLLEDCGIHLGVHRARILTAAREMLHSPLPCTGGKPSGDTPDVFISYRRNSGSQLASLLKVHLQLHGFSVFIDVEKLEAGKFEDKLIQSVMGARNFVLVLSPGALDKCMQDHDCKDWVHKEIVTALSCGKNIVPIIDGFEWPEPQVLPEDMQAVLTFNGIKWSHEYQEATIEKIIRFLQGRSSRDSSAGSDTSLEGAAPMGPT

Variants of: B1
Settings: with myd88_human MYD88, Q99836
Sequence of myd88_human MYD88, Q99836 (Q99836 whole entry): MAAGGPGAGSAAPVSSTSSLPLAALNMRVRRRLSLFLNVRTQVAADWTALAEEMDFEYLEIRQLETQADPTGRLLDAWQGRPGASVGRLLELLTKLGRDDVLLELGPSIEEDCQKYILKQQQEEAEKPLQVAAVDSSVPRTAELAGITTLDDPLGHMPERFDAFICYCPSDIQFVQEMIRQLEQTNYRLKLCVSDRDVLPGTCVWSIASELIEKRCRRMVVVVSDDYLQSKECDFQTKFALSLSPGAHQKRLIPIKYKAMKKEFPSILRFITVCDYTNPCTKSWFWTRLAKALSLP

| effect of a mutation on the interaction | Variant |
| --- | --- |
| disrupting interaction strength | G601A |

Variants of: B1
Settings: with tcam1_human TICAM1, Q8IUC6
Sequence of tcam1_human TICAM1, Q8IUC6 (Q8IUC6 whole entry): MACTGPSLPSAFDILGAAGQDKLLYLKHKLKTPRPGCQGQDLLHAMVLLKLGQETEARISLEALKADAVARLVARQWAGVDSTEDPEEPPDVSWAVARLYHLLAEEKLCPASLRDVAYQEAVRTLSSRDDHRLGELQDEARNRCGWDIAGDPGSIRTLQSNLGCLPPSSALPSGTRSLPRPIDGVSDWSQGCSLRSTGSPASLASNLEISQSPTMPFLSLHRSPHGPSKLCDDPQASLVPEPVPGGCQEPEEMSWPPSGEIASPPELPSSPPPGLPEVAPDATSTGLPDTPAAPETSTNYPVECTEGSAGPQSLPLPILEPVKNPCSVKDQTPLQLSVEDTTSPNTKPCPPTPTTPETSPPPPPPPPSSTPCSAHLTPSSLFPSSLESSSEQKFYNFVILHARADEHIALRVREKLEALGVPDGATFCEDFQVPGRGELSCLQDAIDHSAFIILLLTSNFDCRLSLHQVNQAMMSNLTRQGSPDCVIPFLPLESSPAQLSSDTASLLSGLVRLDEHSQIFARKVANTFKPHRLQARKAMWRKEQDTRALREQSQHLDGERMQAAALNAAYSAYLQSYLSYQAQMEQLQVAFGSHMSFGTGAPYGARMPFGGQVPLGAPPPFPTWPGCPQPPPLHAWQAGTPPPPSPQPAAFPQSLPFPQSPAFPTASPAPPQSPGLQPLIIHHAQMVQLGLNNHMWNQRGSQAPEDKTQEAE

| effect of a mutation on the interaction | Variant |
| --- | --- |
| disrupting interaction strength | G601A |

Variants of: B1
Settings: with tirap_human TIRAP

| effect of a mutation on the interaction | Variant |
| --- | --- |
| disrupting interaction strength | G601A |

Variants of: B1
Settings: with tcam2_human TICAM2, Q86XR7
Sequence of tcam2_human TICAM2, Q86XR7 (Q86XR7 whole entry): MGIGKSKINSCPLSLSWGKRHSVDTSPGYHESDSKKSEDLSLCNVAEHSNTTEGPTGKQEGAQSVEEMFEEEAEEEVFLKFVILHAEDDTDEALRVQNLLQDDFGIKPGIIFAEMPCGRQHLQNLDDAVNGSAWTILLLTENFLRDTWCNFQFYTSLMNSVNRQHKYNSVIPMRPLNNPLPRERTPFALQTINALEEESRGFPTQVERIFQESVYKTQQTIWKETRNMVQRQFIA

| effect of a mutation on the interaction | Variant |
| --- | --- |
| disrupting interaction strength | G601A |
